Reference: FireProtDB (doi:10.1006/jmbi.1999.2582)
Where “and” joins values, the source holds several entries; their conditions need not be identical. Equal entries are not always repeated.

Details: Myxococcus xanthus, Mops-NaOH 25 mM, CaCl2 3 mM, transition: 3, reversible: Yes, whole UniProt chain shown

B1: Development-specific protein S wild type, P02966 (protein)
chain: MANITVFYNEDFQGKQVDLPPGNYTRAQLAALGIENNTISSVKVPPGVKAILYQNDGFAGDQIEVVANAEELGPLNNNVSSIRVISVPVQPRARFFYKEQFDGKEVDLPPGQYTQAELERYGIDNNTISSVKPQGLAVVLFKNDNFSGDTLPVNSDAPTLGAMNNNTSSIRIS
pH 2, 20 °C, Urea, Absorbance
  denaturant m value: 2.87 kcal/mol/M
  denaturant midpoint (higher = more stable): 2.2 M
  unfolding free energy: 6.21 kcal/mol
pH 2, Thermal, CD
  Tm: 52 °C
pH 7, 20 °C, Urea, Absorbance
  denaturant m value: 1.2 kcal/mol/M and 1.43 kcal/mol/M and 1.91 kcal/mol/M
  unfolding free energy: 5.02 kcal/mol and 7.41 kcal/mol and 3.59 kcal/mol
